# Laboratory results taken from patent publication US20190119357A1, “MESSENGER RIBONUCLEIC ACIDS FOR THE PRODUCTION OF INTRACELLULAR BINDING POLYPEPTIDES AND METHODS OF USE THEREOF” (ModernaTX, Inc., priority 2015, published 2019).
# B1: SQT.(nt)Mcl1.BH3.cv5: anti-MCL1 mmRNA construct, ORF amino acid SEQ ID NO: 108, nucleotide SEQ ID NO: 112, v5 tag (nucleic acid)
# chain: ATGATCCCTAGGAAGGCCCTGGAGACCCTGAGGAGAGTGGGCGACGGAGTGCAGAGGAACCACGAGACCGCCTTCGGCCTGAGCGAGGCAAAGCCAGCAACACCCGAGATCCAGGAGATCGTGGATAAGGTGAAGCCCCAGCTGGAGGAGAAGACCAATGAGACATACGGCAAGCTGGAGGCCGTGCAGTATAAGACCCAGGTGCTGGCCTCCACAAACTACTATATCAAGGTGCGGGCCGGCGACAATAAGTACATGCACCTGAAGGTGTTCAACGGACCACCTGGACAGAATGCAGACAGGGTGCTGACCGGCTATCAGGTGGATAAGAACAAGGACGATGAGCTGACAGGCTTTGGCAAGCCAATCCCCAATCCTCTGCTGGGCCTGGATTCTACA
# modifications: V5 tag; Synthetic SQT.(nt)Mcl1.BH3.cv5
# Test system: Hep3B cells
# Assay: Anti-MCL1 mmRNA construct combined with SQT-PUMA-BH3, YOYO-3
# Assay type: cell-based
# Details: 50 ng anti-MCL1 mRNA, 1.6 ng SQT-PUMA-BH3, L2K, 48 hours
# Description: The anti-MCL1 mmRNA construct was tested for synergistic killing when combined with SQT-PUMA-BH3 in Hep3B cells. 20,000 Hep3B cells were seeded per well in 96-well plates. Each well was transfected with (a) 1.6 ng SQT-empty (“SQT-dummy”) or SQT-PUMA-BH3; and (b) 50 ng or 12.5 ng anti-MCL1 mRNA. Transfections of mRNA were done with Lipofectamine 2000 (L2K). After 48 hours, apoptosis measurements performed using YOYO-3 viability dye in an Incucyte instrument.
molecule,measurement,setting,value
B1,apoptosis (YOYO-3) in combination with SQT-PUMA-BH3,listed as anti-MCL1 construct,synergistic anti-apoptotic effect in combination with SQT-PUMA-BH3
same,apoptosis (YOYO-3) in combination with SQT-PUMA-BH3,listed as anti-MCL1 mRNA construct,synergistic pro-apoptotic effects
